Experimental data reported in the nanobody polyreactivity screen of Harvey et al. (2022).

Assay: yeast display, Sf9 membrane polyspecificity reagent, FACS + sequencing; frameworks hold sequencing errors
How it was run: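 Using colony PCR, genes from sorted yeast display clones were amplified, then sequenced on MiSeq at 2 × 250 and filtered by CDR length. The clones had been stained with 10% biotinylated, detergent-solubilized Sf9 membrane reagent for 1 hour at 4 °C and sorted by FACS into low and high (top ~1%) gates on anti-HA and streptavidin fluorescence. Polyreactivity labels come from the gate of origin.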

Row | Sequence | polyreactivity (PSR sort gate)
1 | QVQLVESGGGLVQAGGSLRLRCADSGFTLDVYAMGWYRQAPGKERELVAATSRSAGSTYYADSVKGRFTSSRDNAKNTVYLQMNSLKPEETDVYYCGARYPPRFGVVRGYSYYHTSTYSWGQGTQVTVSS | high polyreactivity
2 | QVQLVESGGGLVQAGGSLRLSCAASGFTFKRYAMGWYRQARGKERELVAAISWSGSSTYYADSVKGRFTISRDNAKNTVYLQMNSLKPEDTAVYYCAARSFRPAYDYWGQGTQVTVSS | high polyreactivity
3 | QVQLVESGGGLVQAGGSLRISCAASGSTFEDNAMGWYRQAPGKERELVAAITSGGNTYYADSVKGRFTISRDNSKNTVYLQMNSLKPEDTAVYYCNAVPFYYDFDYWGQGTQVTVSS | low polyreactivity
4 | QVQLVESCGGLVQAGGSLRLSCAASGFTFTWNAMGWYRQAPGKERELVAGITRGGSTNYADSVKGRFTISRDNAKNTVYLQMNSLKPEDTAVYYCNVSFYFHHAGYDYWGQGTQVTVSS | low polyreactivity
5 | QVQLQECGGGLVQAGGSLRLSCAASGNIFDADIMGWYSQAPGKERELVDSVTDGGSTNYADSVKGRFTISRDNAKNTVYLQMNSLKPEHTAVYYCAAIVYPDILTYFDYDYDYFYWGQGTQVTVGS | low polyreactivity
6 | QVQLVESGGGLVQAGGSLRLSCAASGIIFDEYAMGWYRQAPGKERELVAVIDWSGGSTYYADSVKGRFTISRDNAKNTFFLQMNSLKPEDTAVYYCAAEDDSTTPEFDYWGQGTQVTVSS | low polyreactivity
7 | QVQLVESGGGLVQAGGSLRLSSAASGFTFDYNTMGWDRQAPGKERELVAGISRGGGSTYYADSVKGRFTISRDNAKNTVYLQMNSLKPEDTAVYYCNTVLKRQRKNEYWGQGTQVTVSS | high polyreactivity
8 | QVQLVESGGGIVQAGGSLRLSCAASGFTFWYYAMGWYRQAPGKERELVAVINTSGGSTYADSVKGRFTISRDNAKNTVYLQMNSLKPEDTAVYYCNKDFIYGYDAASYRPEYDYWGQGTQVTVSS | low polyreactivity
9 | QVQLVESGGGLVQAGGSLRLSCAASGRTFKYYAMGWYRQAPGKERELVAASTTGGSTHYADSVKGRFTISRDNAKNTVYLQMNSLKPEDTAVYYCAAGPFARYDYWGQGTQVTVSS | low polyreactivity
10 | QVQLVESGGGLVQAGGSLRLSCAASGSIFPTYAMGWYRQAPGKERELVAAITGSGGSTYYADSVKGRFTISRDNAKNTVYLQMNSLKPEDTAVYYCAKDVYWYGVWYDYWGQGTQLTVSS | high polyreactivity
11 | QVQLVESGGGLVQAGGSLRLSCAASGSTFVYYAMGLYRQAPGKERELVAAITASGGGTYYADSVKGRFTISRDNAKNPVYLQMNSLKPEVTAVYYCNRGYDYWGQGTQVTVSS | low polyreactivity
12 | QVQLVESGGGLVQAGGSLRLSCAASGSIFRLNAMGWYRQAPGKERELVARIDSSGSTNYADSVKGRFTISRDNAKNTVYLQMNSLKPEDTAVYYCAAGLVLIVGMDSWGQGTQVTVSS | low polyreactivity
13 | QVQLVESGGGLVQAGGSLRLSCAASGSILYVYAMGRYRQAPGKERELVAAISGSGGSTYYADSVKGRFTISRDNAKNTVYLQMNSLKPEDTAVYYCAADYATVTWRGIAYDYWGLGTQVTVSS | low polyreactivity
14 | QVQLVESGGGLVQAGGSIRLSSAASGLIFLGDPMGWYRQAPGKERELVASIRTGRSTSYADSVKGRFTFSRDNAKYTVYLQMNSLKPEDTAVYYCAADRGRPNLPGDYWGQGSQVTVSS | low polyreactivity
15 | QVQLVESGGGLVQAGGSLRLSCAASGIIFRYYVMGWYRQAPGKERELVAAISWSGGSTYYADSVKGRFTISRDNAKNTVYLQMNSLKPEDTAVYYCAASRGILASEFGYWGQGTQVTVSS | high polyreactivity
16 | QVQLVESGGGLVQAGGSLRLSCAASGFIFVANAMGWYRQAPGKERELVAAISFSGGRTYYADSVKGRFTISRDNAKNTVYLQMNSLKPEDTAVYYCNTVSEWWAGDHPDAEFDYWGQGTQVTVSS | low polyreactivity
17 | QVQLVESGGGLVQAGGRLRLSCAASGSIFRYYAMGWYRQATGKERELVAAITRGDSTNYADSVKGRFTISRDNAKNTVYLQMNSLKPEDTAVYYCAASRYHGWYVKMGYWGQGTQVTVSS | high polyreactivity
18 | QVQLVESGGGLVQAGGSLRLSCAASGSTFVPNAMGWYRQAPGKERELVAAISYSGGTTYYADSVKGRFTISRDNAKNTVYLQMNSLKPEDTEVYYCAARSKGAAAILDDYWGQGTQVTVSS | low polyreactivity
19 | QVQLVESGGGLVQAGGSLRLSWAASGFTLTRNAMGWYTQAPGKERELVAAISWSGGTTYYADSVKGRFTISRDNAKNPVYLQMNSLKRDDTAVYYCNTASWRAQYYYWGQGTRVTVSS | high polyreactivity
20 | QVQLVESGGGLVQAGGSLRLSCAASGRIFSVYARGWYRQAPGKERELVAAITWTGGRTYYADSVKGRFTISRDNAKNTVYLQMNSLKPEDTAVYYCAAQWVRSYQMYWGQGTQVTVSS | high polyreactivity
21 | QVQLVESGGGLVQAGGSLRLSCAASGSIFGRYAMGWYRQAPGKERELVASIYSSGSTYYADSVKGRFTISRDNAKNTVYLQMNSLKPEDTAVYYCAAQISVWGYRVGYTKYYYWGQGTQVTVSS | high polyreactivity
22 | QVQLVESGGGLVQAGGSLRLSCAASGRTFYYYAMGWYRQAPGKERELVARISRGGSTNYADSVKGRFTISRDNAKNTVYLQMNILKPEDTAVYYCAKTISYTGRFWGYDYWGQGTQVTVSS | high polyreactivity
23 | QVQLVDSGGGLVQAGGSLRLISAASGLIFSWYDKGWYRQAPGKERELVAAITTDGDDTYYADSVKGRFTISRDNAKNTVYLQMNSLKPDDTAVYYCAADSELGIRYPDRDYDSWGLGTQVTVSS | low polyreactivity
24 | QVQLVESGGGLVQAGGSLRLSCAASGSIFGAYAMGRYRQAPGKERELVAAITSGGSTNYADSVKGRFTISRDNAKNTVYLQMNSLKPEDTADYYCAARRRYAKFRYDYWGQGTQVTVSS | high polyreactivity
25 | QVQLVESGGGLVQAGGSLRLSCAASGIIFYKNAMGWYRQAPGKERELVAAISGSGGRTYYADSVKGRFTISRDNAKKTVYLQMNSLKPEDTAVYYCAARKPYRHGYESWGQGTQVTVSS | high polyreactivity
26 | QVQLVESCGGLVQAGGSLRLSCAASGRTFYFYAMGWYRQAPGKERELVAAISSTGGSTYYADSVKGRFTISRDNAKNTVYIQMNSLKPEDTAVYYCAARKSPRGRGEFYWGQGTQVTVSS | high polyreactivity
27 | QVQLVESGGGLVQAGGSLRLSCAASGSIFLWYAMGWSRQAPGKERELVAALTYSGGTTYYADSVKGRFTISRDNAKNTVYLQLNSLKPEDTAVYYCAKRTAVWTSGGYRKRDYWGQGTQVTVSS | high polyreactivity
28 | QVQLVESGGGLVQAGGSLRLSCAASGSTFYSYAMGWYRQAPGKDRELVAAISSSSGTTYYADSVKGRFSISRDNAKTTVYLQMNSLKPEDTAVYYCNRGRRYSHKYDYWGQGTQVTVSS | high polyreactivity
29 | QVQLVESGGGLVQAGGSLRLSCAASGITFYVYAMGWYRQAPGKERELVAAISRRGGSTSYADSVKGRFTISRDNAKNTVYLQMNSLKPEDTAVYYCAKDTTYYQVYGYGYDYWGQGTQVTVSS | low polyreactivity
30 | QVQLVESGGGLVHAGGSLRLSCAASGSTFKGYAMGWYRQAPGKERELVASIRSSSGSTYYADSVKGRFTISRDNAKNTVYLQMNSLKPEDTAVYYCATALWVRYYGQGGYIRRYDYWGQGTHVTVSS | high polyreactivity
